This is an account of results in paper PMC12681905.

The target in experiment [1] is recombinant human LONP1 protein (human) (UniProt P36776). Nature of the experiment: BLI; Octet R8, biotinylated LONP1 on streptavidin 2.0 biosensor; SOD2 at 0, 2.5, 5 and 10 uM for 90 s; steady-state fit.
Experiment [2] shares this target. Nature of the experiment: MST; Monolith NT.115; 86 nM NHS-labelled LONP1, SOD2 from 2.85 to 22.8 uM, incubated 10 min; 80 % LED power, 80 % MST.
The target is the same in experiment [3]. As to the kind of experiment: SPR; Biacore T200, LONP1 covalently coupled to a CM5 chip; SOD2 from 10 to 0.3125 uM in PBS/0.01 % Tween 20, 20 ul/min; association 240 s, dissociation 420 s. On the technique in general: Surface plasmon resonance follows binding to a sensor surface in real time, without labels.

Consider “recombinant human SOD2 protein (from UniProt P04179 25-222) (enzyme)”, for which the Kd came out at 13.4 µM in experiment [1], 1.56 µM in experiment [2] and 0.22 µM in experiment [3].

In general, Kd refers to a measure of binding affinity in units of concentration.
